# Source: the DeepSol protein solubility set
# Experiment: soluble on expression in E. coli; label from the status in PepcDB or PDB records
row,Sequence,soluble on expression in E. coli
1,MSLSKSMARARNRCLPMNFRAEDLASGILRERVKVGASLADVDPMNIDKSVRFDSIGGLSHHIHALKEMVVFPLLYPEIFEKFKIQPPRGCLFYGPPGTGKTLVARALANECSQGDKKVAFFMRKGADCLSKWVGESERQLRLLFDQAYLMRPSIIFFDEIDGLAPVRSSRQDQIHSSIVSTLLALMDGLDNRGEIVVIGATNRLDSIDPALRRPGRFDREFLFNLPDQKARKHILQIHTRDWNPKLSDAFLGELAEKCVGYCGADIKALCTEAALIALRRRYPQIYASSHKLQLDVSSIVLSAQDFYHAMQNIVPASQRAVMSSGHALSPIIRPLLERSFNNILAVLQKVFPHAEISQSDKKEDIETLILEDSEDENALSIFETNCHSGSPKKQSSSAAIHKPYLHFTMSPYHQPTSYRPRLLLSGERGSGQTSHLAPALLHTLERFSVHRLDLPALYSVSAKTPEESCAQIFREARRTVPSIVYMPHIGDWWEAVSETVRATFLTLLQDIPSFSPIFLLSTSETMYSELPEEVKCIFRIQYEEVLYIQRPIEEDRRKFFQELILNQASMAPPRRKHAALCAMEVLPLALPSPPREGHHHHHH,not soluble
2,MSLSLTPLSEKLRPNNLDTFIGQNHLLERLQYIISAPRLPSMLFFGPPGCGKSTLALLLAYKKSTNILRISAPETGIQQLRQKLTDIDILILDEIHRFSKAQQDFFLPLLESGKLTMLATTTENPSFSVTKQLLSRLNVLQLRQLGYNELKELVKKGTLFLNILLPDDVINFLATTAHGDARTLFNLIEYISILPEEKRVLEYIKINLPEILERHDKDGDSHYEYASALIKSIRGSNPDAALYYLACLLEGGEDPRFICRRLIISASEDIGLADPQALSLAVSCQQAVEFVGMPEGFIPLSETVVYLALARKSNSTYAAYSNAAREVRLHGAQPVPLHLRNPSTQLQKQWGYGREYKYPHNYPNAWVEQEYFPSTISNRSFYYPKEQGEEPKLNMWHNHIKKKYSEGHHHHHH,not soluble
3,MSLSLWQQCLARLQDELPATEFSMWIRPLQAELSDNTLALYAPNRFVLDWVRDKYLNNINGLLNTFCGADAPQLRFEVGTKPVTQTLKTPVHNVVAPAQTTTAQPQRVAPAARSGWDNVPAPAEPTYRSNVNVKHTFDNFVEGKSNQLARAAARQVADNPGGAYNPLFLYGGTGLGKTHLLHAVGNGIMARKPNAKVVYMHSERFVQDMVKALQNNAIEEFKRYYRSVDALLIDDIQFFANKERSQEEFFHTFNALLEGNQQIILTSDRYPKEINGVEDRLKSRFGWGLTVAIEPPELETRVAILMKKADENDIRLPGEVAFFIAKRLRSNVRELEGALNRVIANANFTGRAITIDFVREALRDLLALQEKLVTIDNIQKTVAEYYKIKIADLLSKRRSRSVARPRQMAMALAKELTNHSLPEIGDAFGGRDHTTVLHACRKIEQLREESHDIKEDFSNLIRTLSSLEHHHHHH,not soluble
4,MSLSPALSAPKPLRFPANPAPTALKQFALTLQSESYRYRTPMKFGGRVVEEVTVLTAQCTATNQAGQVADGDQIGIGSMTMGVAWAWPDASVADGTKLEVVLELASRMAAQVNEASGTLTGHPMEICLQLASQREDLVAAVAAGHDLTAPIPELAILLAASPIEAALFDAHGKAAGQSSYSLLSAEHLPPDLGEMTGDDRYAGLRLDQFISSSPVATLPLYHLVGALDPLTQDDLAEPVGDGLPETLGEWITRNELTHLKIKLNGDDADWDFRRVRDINTVANETTDRGSSTGKPWWFSLDFNERCEDEAYVLGLLDRLESECPEAFERIQYIEQPTHRDLKRPGAVTMHQAAARIPVVIDESLTGLESLHLAVSQGYSGIALKACKGHAEALLLGAIAVHENLFLCVQDLTCVGASLLHSASLSAHIPGVAAVESNGRQYCPEGNAEWMACFGPMFEVRGGSVPTSCLDGPGLGYEGHHHHHH,soluble
5,MSLSPEHKRTALVTGANSGLGKAIVTALAADGLRVGLVARDRGRGEAALADVRAATGNQDLHLFVADLADQESIRALAQDVRARFDRLHLLINNAGTAFPERRLSPQGIERAFAINHLGPFLLTNLLLDLIKASAPARIVNVGTRIDAAIDFDDLNWDKRPYGMMKGYAQSKLGNLHFTFELARRLEGSGVTVNCVFPGVFKSNLGGTDGAQGLFWKLLAKLGGWAIPKPESAAQRVLYLANAPELESVSGQYYANRKTIPAPAQALDAEANRRLWEISERMTGLTQSQTVGDQAATEGHHHHHH,soluble
6,MSLSQLEPRQQAFRNAMAHLSAAVNVITSNGPAGRCGITATAVCSVTDSPPTLMLCINRNSEMNTVFKANGRLCVNVLSGEHEEVARHFAGMTEVPMERRFALHDWREGLAGLPVLHGALANLQGRIAEVQEIGTHSVLLLELEDIQVLEQGDGLVYFSRSFHRLQCPEGGSHHHHHH,soluble
